± gives the standard deviation.
Test: protein stability index of a GFP-peptide fusion (GPS, HEK-293T) (PSI 1-6); higher = more stable
[1] = treatment: DMSO, c terminus: a fixed tail appended
[2] = treatment: MLN4924 1 uM, 8 h, c terminus: a fixed tail appended
[3] = treatment: DMSO, c terminus: native
[4] = treatment: MLN4924 1 uM, 8 h, c terminus: native
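Further: 24-mer peptide tiles fused after GFP, lentivirally expressed, FACS-sorted into six equal bins by GFP/DsRed ratio, decoded by Illumina sequencing, PSI is the read-weighted mean bin number.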

Row | Sequence | protein stability index [1] | protein stability index [2] | protein stability index [3] | protein stability index [4]
1 | CPTEPPDDSCQDQPGTNCALAIKV [ADAMTSL2] | 4.95 ± 0.31 | 5.03 ± 0.41 | – | –
2 | CTWSIFQSIEYAGQQDQVKLHDFF [PPEF2] | 2.54 ± 0.62 | 2.37 ± 0.46 | – | –
3 | CVATTGDITVSVSTSFLPELSSVH [FBXO3] | 2.23 ± 0.27 | 2.14 ± 0.23 | – | –
4 | CVDRQEVAEITKQLPPVVPVSKPG [TCAP] | 4.7 ± 0.2 | 4.63 ± 0.15 | – | –
5 | CWDMQGKRFVAMKVVKSAQHYTET [SRPK2] | 2.34 ± 0.34 | 2.54 ± 0.3 | – | –
6 | DAETSKLIYDFIEDQGGLEAVRQE [WAS] | 4.61 ± 0.24 | 4.76 ± 0.28 | – | –
7 | DAPEQRLRVMTTNIRSARGNNPNG [ELOA2] | 4.84 ± 0.23 | 4.95 ± 0.23 | – | –
8 | DARVKRKLRGPEPAATEAYGSGDT [TBX6] | 5.16 ± 0.3 | 5.24 ± 0.22 | – | –
9 | DCQAGLNFADEDEAQAFRALVQEK [WAS] | 5.17 ± 0.22 | 5.08 ± 0.16 | – | –
10 | DDTETVPSEQSHASGKLRKKKKKQ [TCF25] | 5.52 ± 0.44 | 5.88 ± 0.17 | – | –
11 | DDVISRIDRMFPEMSIHLSRPNGT [MED27] | 3.25 ± 0.24 | 3.36 ± 0.25 | – | –
12 | DDVLPWRRTAENKLDTKYPYVCHA [DCTD] | 3.331 ± 0.026 | 3.31 ± 0.39 | – | –
13 | DENREVLQTLLYFLSDVTAAVKEN [DLC1] | 2.14 ± 0.28 | 2.33 ± 0.19 | – | –
14 | DESLTDLEAQPYEAVFLRAVKLYN [P3H4] | 2.58 ± 0.21 | 2.71 ± 0.36 | – | –
15 | DFDEEYFSNTSELAKDFIRRLLVK [DAPK3] | 2.77 ± 0.28 | 3.12 ± 0.3 | – | –
16 | DFEFLAFWQTQYNNMNAVNLFFAW [PKD2L1] | 3.17 ± 0.5 | 2.93 ± 0.55 | – | –
17 | DFGSAAASGSFPSQVTATSGNGDF [CLINT1] | 4.95 ± 0.17 | 4.69 ± 0.26 | – | –
18 | DGKRVIVVFHCEFSSERGPRMCRY [CDC25A] | 2.64 ± 0.53 | 2.73 ± 0.78 | – | –
19 | DGNGGQFREVYVGKETMCTVDGLH [TRIM9] | 3.94 ± 0.37 | 4.11 ± 0.28 | – | –
20 | DGSVLLIPRTMADQQARRQERKPK [NFE2L1] | 3.5 ± 0.14 | 3.63 ± 0.31 | – | –
21 | DIARMLYKDTCHELDELQLCKNCF [ZMYND11] | 2.27 ± 0.14 | 2.52 ± 0.49 | – | –
22 | DIKDDIYDPTYKDKEGPSPKVEYV [SCD] | 4.92 ± 0.14 | 4.68 ± 0.17 | – | –
23 | DINGLRRILDELTLCKADLEAQVE [KRT36] | 3.02 ± 0.33 | 3.14 ± 0.25 | – | –

Row | Sequence | protein stability index [1] | protein stability index [2] | protein stability index [3] | protein stability index [4]
24 | DISERPSVDDIESETGSTGALETR [C2CD2L] | 5.56 ± 0.22 | 5.59 ± 0.34 | – | –
25 | DKHGCPAYVSPEILNTTGTYSGKA [TRIB1] | 4.44 ± 0.26 | 4.52 ± 0.12 | – | –
26 | DKNRCELLSFLLLMDYIGINLATM [EDNRA] | 2.77 ± 0.49 | 2.92 ± 0.32 | – | –
27 | DKSDQSLPNASADSLGGSQEMVQR [TRAF3IP2] | 5.36 ± 0.17 | 5.33 ± 0.34 | – | –
28 | DLDDFAGFSCNQGRYPLIQTLRQE [CHIT1] | 3.44 ± 0.2 | 3.48 ± 0.082 | – | –
29 | DLMGVLTKGVREVERALQLPREPG [FEM1A] | 2.82 ± 0.17 | 2.69 ± 0.37 | – | –
30 | DLPSSTPVANSGTKPKTTAIQGIS [DLC1] | 4.75 ± 0.2 | 4.93 ± 0.065 | – | –
31 | DLRLRLDHLGWVARGTGSGEDSST [RTN2] | 3.53 ± 0.43 | 4.15 ± 0.37 | – | –
32 | DLSDLLQVDSLRPASFPTWGCDLG [BRF1] | 2.53 ± 0.28 | 2.73 ± 0.31 | – | –
33 | DMKAMSPENQEYFEKHRWPPVWYL [RHOBTB2] | 2.47 ± 0.17 | 2.67 ± 0.36 | – | –
34 | DMNGKSLHGKAIKVEQAKKPSFQS [RBMY1A1] | 3.16 ± 0.2 | 3.61 ± 0.2 | – | –
35 | DNHMSDKDESCYDNAEAAFSDDEE [INTS3] | 5.55 ± 0.18 | 5.29 ± 0.38 | – | –
36 | DNLKFSQEYESIDPGQQFTWEHSN [PTPRD] | 4.57 ± 0.44 | 4.57 ± 0.11 | – | –
37 | DPNTAAGWLSVSDDLTSVTNHGYR [TRIM35] | 4.32 ± 0.15 | 4.31 ± 0.13 | – | –
38 | DQKERCIIVRTTNKKYYKKFSIPD [DPCD] | 2.95 ± 0.21 | 3.06 ± 0.27 | – | –
39 | DQLLLATGLNNGRIKIWDVYTGKL [WSB1] | 2.17 ± 0.29 | 2.17 ± 0.31 | – | –
40 | DRETQEGKPPTAHLDRTSVSSLSE [ELOA2] | 5.37 ± 0.34 | 5.42 ± 0.21 | – | –
41 | DRPRCCLRGKECCINRFQQVESRW [BTBD1] | 2.89 ± 0.32 | 3.06 ± 0.38 | – | –
42 | DSAKREVKQKISPYFKSNDVVCKN [FAN1] | 3.95 ± 0.35 | 4 ± 0.31 | – | –
43 | DSAQMQNGGPSTPPASPPADGSPP [ANKRD40] | 5.24 ± 0.49 | 5.23 ± 0.19 | – | –
44 | DSEEPVSTHQEAENEKDRADQTVL [CHGB] | 5.29 ± 0.56 | 5.65 ± 0.27 | – | –
45 | DSLWHRSDSAPRNKISRFQAPISA [MFF] | 3.43 ± 0.45 | 3.41 ± 0.19 | – | –
46 | DSTKTAFHRSQTLSYRNGYAIVRR [EFHC1] | 3.31 ± 0.12 | 3.48 ± 0.32 | – | –

Row | Sequence | protein stability index [1] | protein stability index [2] | protein stability index [3] | protein stability index [4]
47 | DSTNVEEAFKNILTEIYRIVSQKQ [RAB11B] | 2.29 ± 0.2 | 2.49 ± 0.25 | – | –
48 | DVNSFVTECEPSELFQLQTYSLPP [CDS1] | 3.58 ± 0.29 | 3.54 ± 0.35 | – | –
49 | EAAGVQIQMVNESLGYVRSQFLKL [CD207] | 2.334 ± 0.019 | 2.3 ± 0.44 | – | –
50 | EAAYLKILESSQTLLSVLKREAGN [SSNA1] | 2.39 ± 0.13 | 2 ± 0.26 | – | –
51 | EACLVAQCDALIDALNRRKAQLLA [TRIM9] | 2.46 ± 0.29 | 2.65 ± 0.44 | – | –
52 | EATTSDPQDLDMKKHRCKCCSIM [PALM] | – | – | 4.3 ± 0.24 | 4.58 ± 0.23
53 | ECKHPSVFQHGDNSFRLLFDVVVI [MCOLN1] | 2.9 ± 0.48 | 3.02 ± 0.71 | – | –
54 | ECQYYIDKLEYLDEKQRDPRIEAS [NET1] | 4.12 ± 0.13 | 4.04 ± 0.19 | – | –
55 | EDAYKIRIRIDDEPANLDILDTAG [RIT1] | 3.38 ± 0.28 | 3.47 ± 0.65 | – | –
56 | EDDPSVLYVSLHRYDHGTFFPMGD [HDAC6] | 2.29 ± 0.31 | 2.37 ± 0.3 | – | –
57 | EDNLSLVCLPRSEDDDCDDDDDDD [DRICH1] | 5.48 ± 0.42 | 5.51 ± 0.075 | – | –
58 | EEAWVKIENLAKANPQYTVYSQAS [PPP2R5C] | 3.29 ± 0.16 | 3.48 ± 0.18 | – | –
59 | EEEDDDDIHITARIESDLTLESLS [DRICH1] | 5.16 ± 0.12 | 5.16 ± 0.083 | – | –
60 | EEEDLRRRLKYFFMSPCDKFRAKG [MCOLN1] | 2.65 ± 0.41 | 3.15 ± 0.5 | – | –
61 | EEERDEEEDKRRKGEEVTPISAIR [EPB41L3] | 5.59 ± 0.28 | 5.66 ± 0.21 | – | –
62 | EEPENGEPTAAATARRSKRERREE [PWWP2B] | 5.63 ± 0.29 | 5.8 ± 0.14 | – | –
63 | EERALLLGRMGKHEQALFIYVHIL [VPS39] | 2.96 ± 0.41 | 2.68 ± 0.51 | – | –
64 | EETVTMLEDVERELDGPKQIFFGR [ZNF396] | 4.5 ± 0.14 | 4.49 ± 0.26 | – | –
65 | EEVSTLNAQIPELKSDLEKASALN [CD207] | 5.08 ± 0.19 | 5.24 ± 0.17 | – | –
66 | EEYSQIIYSTKLYRFFKYIENRDV [BTBD10] | 1.64 ± 0.19 | 1.87 ± 0.4 | – | –
67 | EFDSPHEDIVFETDHILESLYRDI [STX11] | 3.59 ± 0.38 | 3.58 ± 0.25 | – | –
68 | EFSIDNYPTDNTKVMIFKSSYSLS [MIA2] | 2.75 ± 0.64 | 2.48 ± 0.3 | – | –
69 | EFVTLKAIALANSDSMHIEDVEAV [ESRRG] | 3.39 ± 0.38 | 3.31 ± 0.29 | – | –

Row | Sequence | protein stability index [1] | protein stability index [2] | protein stability index [3] | protein stability index [4]
70 | EGHHHDVVACDFSPDGALLATASY [WSB1] | 3.9 ± 0.23 | 4.03 ± 0.18 | – | –
71 | EGMDFHRFYFENLLAKNSKPIHTT [CAMK2B] | 2.52 ± 0.36 | 2.49 ± 0.31 | – | –
72 | EGPGEQETKLDLISKGEEPRAGKE [SLC29A1] | 5.68 ± 0.21 | 5.43 ± 0.21 | – | –
73 | EGRKKAFSTCGSHLTVVAIFYGSG [OR3A1] | 2.77 ± 0.4 | 3.15 ± 0.38 | – | –
74 | EGSSQEDEDLGLSEGSSQDSGED [SPANXN3] | – | – | 5.55 ± 0.24 | 5.56 ± 0.19
75 | EGYAHLTHLLMGLASGRIILILEG [HDAC6] | 2.91 ± 0.56 | 3.09 ± 0.041 | – | –
76 | EGYTWRVAQLEDRRSTTDLRGTQF [ZSWIM9] | 3.37 ± 0.55 | 3.28 ± 0.24 | – | –
77 | EHDFLDRDAIEALCRRLNTLNKCA [DLC1] | 2.73 ± 0.36 | 2.73 ± 0.49 | – | –
78 | EIERAIKQTQCPADPLQLNKALSI [FEM1C] | 3.42 ± 0.44 | 3.28 ± 0.16 | – | –
79 | EKGILTTEKQNFLLFDMTTHPVTN [GOLPH3L] | 3.69 ± 0.32 | 3.61 ± 0.27 | – | –
80 | EKKLFECLTCGKSFRQGMHLTRHQ [ZNF263] | 2.1 ± 0.41 | 2.27 ± 0.19 | – | –
81 | EKTFWKEEKSFWEMEKSFREEEKT [CCDC70] | 4.62 ± 0.23 | 4.82 ± 0.26 | – | –
82 | EKYGAVREVILKELAEATWCGIST [ZBED1] | 2.97 ± 0.36 | 2.68 ± 0.35 | – | –
83 | ELMKCQIIYPRQQLLTLRELEMIG [TRIP13] | 2.33 ± 0.47 | 2.02 ± 0.53 | – | –
84 | ELNKKMTNIRLPNVPSSSLPAQPN [CHMP4C] | 3.66 ± 0.4 | 3.63 ± 0.18 | – | –
85 | ELNKQVVSSSEQLQSYQAEIIELR [KRT33B] | 3.76 ± 0.3 | 3.99 ± 0.34 | – | –
86 | ELRPRRGRCGPQAARAAGRDVAAE [POMT2] | 3.58 ± 0.37 | 3.67 ± 0.086 | – | –
87 | ELVSVEDLLKFEKKFQSEKAAGSV [FIS1] | 3.58 ± 0.3 | 4.07 ± 0.35 | – | –
88 | EMEVMRRQLYAVNRRLRALEEQGA [FATE1] | 3.65 ± 0.29 | 3.68 ± 0.41 | – | –
89 | ENHSMYCVQCKMPVCYQCLEEGKH [TRIM9] | 4.07 ± 0.2 | 4.36 ± 0.41 | – | –
